The values below come from paper PMC3380823.

Assay [1] deals with recombinant phospholipase C of Chlamydomonas reinhardtii (CrPLC), wild type (Chlamydomonas reinhardtii). Briefly: SEC; HiLoad 16/60 Superdex 200 prep grade and Superose 12 10/300 GL analytical columns, PBS, 1 ml/min, 4°C, no reducing agent; calibrated with molecular weight standards; 5 to 50 µM on the analytical column; monomer and dimer fractions reloaded. (Size exclusion chromatography separates by hydrodynamic size, large species first.)

The target in assay [2] is CrPLC C7A mutant (Chlamydomonas reinhardtii). Described as above.

For orientation: stoichiometry N means the number of molecules, sites or subunits per partner or assembly. Turning to “recombinant phospholipase C of Chlamydomonas reinhardtii (CrPLC), wild type (enzyme)”, the stoichiometry N in assay [1] is 2.

On to CrPLC C7A mutant (enzyme), for which, in assay [2], the percent of dimerization disrupted was found to be 95%.
